# In the Human Domainome abundance scans (Beltran et al. 2025):
# ± gives the uncertainty stated by the source.
# B1: Myocardin, residues 363 to 406; numbered along this chain, Q8IZQ8 (parent)
# chain: KPGPLPPNLDDLKVSELRQQLRIRGLPVSGTKTALMDRLRPFQD
# Variants of: B1
# Assay: abundance fitness (aPCA) (normalised: wild type 0, dead -1); higher = more abundant; growth selection in yeast, the domain comes from the species named
# Details: Homo sapiens
row,Variant,abundance fitness
1,L17N,-1 ± 0.35
2,L17V,-0.606 ± 0.084
3,L17G,-0.649 ± 0.064
4,L17W,-0.798 ± 0.099
5,L17K,-0.345 ± 0.12
6,L17C,-1.31 ± 0.36
7,L17H,-0.878 ± 0.31
8,L17A,-0.583 ± 0.081
9,L17Y,-1.02 ± 0.22
10,L17R,-0.606 ± 0.071
11,L17E,-0.454 ± 0.09
12,L17M,-0.265 ± 0.076
13,L17D,-0.86 ± 0.42
14,L17I,-0.6 ± 0.44
15,L17T,-0.779 ± 0.13
16,L12R,-0.394 ± 0.064
17,L12Y,0.298 ± 0.16
18,L12P,-0.899 ± 0.21
19,L12E,-0.369 ± 0.088
20,L12H,-0.614 ± 0.14
21,L12C,-0.499 ± 0.13
22,L12V,-0.497 ± 0.068
23,L12N,-0.507 ± 0.21
24,L12Q,-0.506 ± 0.34

row,Variant,abundance fitness
1,L12F,0.053 ± 0.25
2,L12G,-0.638 ± 0.069
3,L12T,-0.401 ± 0.1
4,L12S,-0.274 ± 0.12
5,L12A,-0.425 ± 0.061
6,L12W,-0.315 ± 0.085
7,L12K,-0.284 ± 0.35
8,L12D,-0.429 ± 0.09
9,D10F,-0.582 ± 0.36
10,D10T,-0.178 ± 0.29
11,D10K,-0.076 ± 0.11
12,D10Q,-0.163 ± 0.14
13,D10R,-0.147 ± 0.065
14,D10S,-0.257 ± 0.075
15,D10E,0.287 ± 0.071
16,D10W,0.104 ± 0.082
17,D10A,0.178 ± 0.081
18,D10P,-0.552 ± 0.16
19,D10H,-0.315 ± 0.13
20,D10Y,0.026 ± 0.32
21,D10N,-0.078 ± 0.17
22,D10C,0.245 ± 0.099
23,D10V,0.076 ± 0.068
24,D10G,0.311 ± 0.058

row,Variant,abundance fitness
1,P4L,0.102 ± 0.076
2,P4Y,0.368 ± 0.077
3,P4G,-0.229 ± 0.067
4,P4S,0.078 ± 0.079
5,P4V,0.09 ± 0.07
6,P4R,-0.059 ± 0.08
7,P4Q,0.136 ± 0.074
8,P4K,0.371 ± 0.079
9,P4M,0.392 ± 0.14
10,P4N,0.463 ± 0.12
11,P4H,0.093 ± 0.076
12,P4T,0.329 ± 0.099
13,Q19H,-0.412 ± 0.41
14,Q19L,-0.198 ± 0.088
15,Q19A,-0.194 ± 0.073
16,Q19C,-0.464 ± 0.093
17,Q19D,-0.05 ± 0.14
18,Q19S,-0.261 ± 0.09
19,Q19V,-0.544 ± 0.096
20,Q19P,-0.761 ± 0.13
21,Q19M,-0.206 ± 0.18
22,Q19E,0.029 ± 0.087
23,Q19G,-0.368 ± 0.066
24,Q19Y,-0.124 ± 0.14

row,Variant,abundance fitness
1,Q19T,-0.439 ± 0.17
2,Q19W,-0.717 ± 0.18
3,L5S,-0.341 ± 0.12
4,L5M,-0.139 ± 0.15
5,L5H,-0.311 ± 0.33
6,L5D,-0.245 ± 0.12
7,L5Y,-0.204 ± 0.18
8,L5W,-0.984 ± 0.13
9,L5C,-0.044 ± 0.1
10,L5G,-0.283 ± 0.059
11,L5N,-0.276 ± 0.32
12,L5I,0.011 ± 0.18
13,L5K,-0.514 ± 0.19
14,L5F,-0.307 ± 0.16
15,L5R,-0.448 ± 0.062
16,L5Q,-0.131 ± 0.1
17,L5E,-0.13 ± 0.11
18,L5T,-0.302 ± 0.087
19,R18H,-0.321 ± 0.24
20,R18V,-0.312 ± 0.076
21,R18K,0.032 ± 0.1
22,R18F,-0.481 ± 0.16
23,R18G,-0.888 ± 0.12
24,R18Y,-0.744 ± 0.31

row,Variant,abundance fitness
1,R18M,-0.503 ± 0.11
2,R18P,-0.727 ± 0.15
3,R18Q,-0.179 ± 0.11
4,R18W,-0.861 ± 0.19
5,R18E,-0.177 ± 0.15
6,R18A,-0.366 ± 0.074
7,R18T,-0.388 ± 0.1
8,R18C,0.116 ± 0.26
9,R18L,-0.44 ± 0.091
10,R18I,-0.133 ± 0.47
11,L9T,-0.731 ± 0.12
12,L9I,-0.289 ± 0.088
13,L9P,-0.513 ± 0.12
14,L9A,-0.876 ± 0.12
15,L9Q,-0.278 ± 0.083
16,L9R,-0.524 ± 0.058
17,L9V,-0.024 ± 0.072
18,L9M,-0.543 ± 0.13
19,L9C,-0.371 ± 0.19
20,L9K,-0.741 ± 0.19
21,L9N,-0.871 ± 0.3
22,L9W,-0.615 ± 0.1
23,L9H,-0.542 ± 0.15
24,L9S,-0.605 ± 0.14

row,Variant,abundance fitness
1,L9E,-0.807 ± 0.1
2,L9D,-0.873 ± 0.15
3,L9G,-0.491 ± 0.061
4,Q20D,-0.608 ± 0.1
5,Q20H,0.073 ± 0.11
6,Q20Y,-0.38 ± 0.13
7,Q20S,-0.711 ± 0.15
8,Q20V,-0.57 ± 0.08
9,Q20L,0.073 ± 0.075
10,Q20G,-0.697 ± 0.073
11,Q20C,-0.395 ± 0.11
12,Q20F,-0.093 ± 0.16
13,Q20W,-0.767 ± 0.095
14,Q20I,0.05 ± 0.25
15,Q20P,-0.785 ± 0.16
16,Q20A,0.004 ± 0.059
17,Q20R,-0.602 ± 0.11
18,Q20K,-0.314 ± 0.1
19,N8L,-0.35 ± 0.06
20,N8M,-0.274 ± 0.17
21,N8I,-0.408 ± 0.23
22,N8H,-0.373 ± 0.12
23,N8G,-0.623 ± 0.064
24,N8C,-0.342 ± 0.14

row,Variant,abundance fitness
1,N8S,-0.444 ± 0.085
2,N8W,-0.915 ± 0.16
3,N8P,-0.541 ± 0.099
4,N8R,-0.116 ± 0.058
5,N8A,-0.187 ± 0.081
6,N8E,-0.232 ± 0.072
7,N8D,-0.246 ± 0.068
8,N8Q,-0.154 ± 0.12
9,N8V,-0.048 ± 0.063
10,L26E,-0.293 ± 0.084
11,L26Q,-0.503 ± 0.14
12,L26P,-0.676 ± 0.38
13,L26H,-1.1 ± 0.27
14,L26S,-0.562 ± 0.1
15,L26R,-0.858 ± 0.083
16,L26G,-0.586 ± 0.12
17,L26A,-0.479 ± 0.094
18,L26M,0.075 ± 0.13
19,L26I,-0.431 ± 0.19
20,L26K,-0.404 ± 0.2
21,E16P,-0.939 ± 0.2
22,E16S,-0.47 ± 0.072
23,E16V,-0.481 ± 0.079
